Assay results published in patent US20240368233A1 (University of Washington, published 2024).

Tests used:
DFA0 = biological target: T1, DFA0; experiment: SEC of mixed components; trimer listed in Table 6
T1 construct: Bivalent connector
T1 chain: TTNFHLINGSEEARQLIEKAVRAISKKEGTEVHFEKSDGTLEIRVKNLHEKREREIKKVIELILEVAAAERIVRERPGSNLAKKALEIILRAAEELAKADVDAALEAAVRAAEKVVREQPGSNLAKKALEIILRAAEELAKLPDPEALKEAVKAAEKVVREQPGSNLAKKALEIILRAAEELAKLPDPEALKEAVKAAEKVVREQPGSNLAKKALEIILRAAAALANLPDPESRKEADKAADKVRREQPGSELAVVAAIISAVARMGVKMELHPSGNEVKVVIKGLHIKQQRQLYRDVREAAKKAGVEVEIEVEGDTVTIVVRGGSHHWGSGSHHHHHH
Experimental: (§1) Complexes and individual components were diluted in 20 mM Tris pH 8.0, 100 mM NaCl. After o/n equilibration of the mixtures at room temperature or 4 degrees C., 500 ul of sample was injected onto a Superdex™ 200 10/300 increase GL (dimers, linear assemblies) or Superose™ 6 increase 10/300 GL (symmetric assemblies) (all columns from GE healthcare) using the absorbance at 230 nm or 473 nm (for GFP tagged components) as read-out. Dimers were mixed at monomer concentrations of 5 μM or higher. Trimer and ABCD tetramer mixtures contained 5 μM of the bivalent connector, and 7.5 μM of each terminal cap (lower absolute concentrations with the same ratios were used for some trimers). ABCA tetramer mixtures contained 5 μM per bivalent connector and 15 μM terminal cap. The hexamer mixture contained 3 μM of components C and D, 3.6 μM of B and E, and 4.4 μM of A and F. The branched assembly shown in FIG. 4A contained 2.8 μM of the trivalent connector and 4 μM of each cap. For the exchange experiment shown in FIG. 5A, the ABC trimer was preincubated at concentrations of 6 μM B and 9 μM each of A and C. C′ was then added to reach a final concentration of 2 μM B, 3 μM each of A and C, and 6 μM C′.

DF275A-1 = biological target: T2, DF275A-1; experiment: SEC of mixed components; trimer listed in Table 6
T2 construct: Bivalent connector
T2 chain: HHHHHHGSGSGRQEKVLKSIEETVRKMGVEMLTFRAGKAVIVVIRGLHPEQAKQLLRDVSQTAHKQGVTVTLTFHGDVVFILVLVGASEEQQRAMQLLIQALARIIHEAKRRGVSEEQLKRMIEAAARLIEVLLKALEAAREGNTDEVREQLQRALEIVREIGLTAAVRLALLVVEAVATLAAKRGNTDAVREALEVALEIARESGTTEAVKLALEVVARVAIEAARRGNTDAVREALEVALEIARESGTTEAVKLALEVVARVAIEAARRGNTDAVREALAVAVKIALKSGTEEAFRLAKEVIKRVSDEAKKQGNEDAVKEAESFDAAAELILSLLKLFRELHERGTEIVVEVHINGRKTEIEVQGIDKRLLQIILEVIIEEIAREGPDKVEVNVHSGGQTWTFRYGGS
Experimental: as §1

101B62 = biological target: T3, 101B62; experiment: SEC of mixed components; linear tetramer listed in Table 6, neighbours in the chain
T3 construct: also called LHD101B62
T3 chain: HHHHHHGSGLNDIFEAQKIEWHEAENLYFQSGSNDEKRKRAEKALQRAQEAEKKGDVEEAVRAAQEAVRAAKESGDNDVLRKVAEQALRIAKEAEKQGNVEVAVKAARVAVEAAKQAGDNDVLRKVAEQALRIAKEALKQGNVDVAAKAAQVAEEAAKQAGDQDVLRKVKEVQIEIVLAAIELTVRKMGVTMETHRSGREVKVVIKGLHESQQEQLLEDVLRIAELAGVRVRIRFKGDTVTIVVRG
Experimental: as §1

DFX = biological target: T4, DFX; experiment: negative-stain EM of the heterotrimer; components named in the legend
T4 construct: Bivalent connector
T4 chain: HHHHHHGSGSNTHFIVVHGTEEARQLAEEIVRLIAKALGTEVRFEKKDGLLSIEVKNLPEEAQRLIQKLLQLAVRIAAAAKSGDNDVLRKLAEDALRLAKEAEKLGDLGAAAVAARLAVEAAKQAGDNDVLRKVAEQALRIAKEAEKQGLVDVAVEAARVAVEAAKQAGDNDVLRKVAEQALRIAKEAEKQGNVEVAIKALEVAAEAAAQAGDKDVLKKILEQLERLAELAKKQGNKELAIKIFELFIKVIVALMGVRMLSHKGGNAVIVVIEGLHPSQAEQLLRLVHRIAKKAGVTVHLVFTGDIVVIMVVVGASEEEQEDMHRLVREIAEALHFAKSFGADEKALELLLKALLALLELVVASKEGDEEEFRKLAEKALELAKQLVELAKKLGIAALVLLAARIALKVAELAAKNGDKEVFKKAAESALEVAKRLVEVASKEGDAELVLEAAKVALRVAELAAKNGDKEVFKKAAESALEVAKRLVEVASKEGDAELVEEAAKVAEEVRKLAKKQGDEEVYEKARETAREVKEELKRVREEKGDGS
Experimental: (§2) SEC peak fractions were concentrated prior to negative stain EM screening. Samples were then immediately diluted 5 to 150 times in TBS buffer (25 mM Tris pH 8.0, 25 mM NaCl) depending on sample concentration. A final volume of 5 μL was applied to negatively glow discharged, carbon-coated 400-mesh copper grids (01844-F, TedPella, Inc.), then washed with Milli-Q™ Water and stained using 0.75% uranyl formate as previously described (53). Air-dried grids were imaged on a FEI Talos L120C TEM (FEI Thermo Scientific, Hillsboro, OR) equipped with a 4K×4K Gatan OneView™ camera at a magnification of 57,000× and pixel size of 2.51. Micrographs were imported into CisTEM software or cryoSPARC™ software and a circular blob picker was used to select particles which were then subjected to 2D classification. Ab initio reconstruction and homogeneous refinement in Cn symmetry were used to generate 3D electron density maps (54, 55).

TF10 = biological target: T5, TF10; experiment: SEC (A230) of A---, -BCD and ABCD and negative-stain EM; components named in the legend of FIG. 17A, which paragraph 104 ties to FIG. 4A
T5 construct: Trivalent connector
T5 chain: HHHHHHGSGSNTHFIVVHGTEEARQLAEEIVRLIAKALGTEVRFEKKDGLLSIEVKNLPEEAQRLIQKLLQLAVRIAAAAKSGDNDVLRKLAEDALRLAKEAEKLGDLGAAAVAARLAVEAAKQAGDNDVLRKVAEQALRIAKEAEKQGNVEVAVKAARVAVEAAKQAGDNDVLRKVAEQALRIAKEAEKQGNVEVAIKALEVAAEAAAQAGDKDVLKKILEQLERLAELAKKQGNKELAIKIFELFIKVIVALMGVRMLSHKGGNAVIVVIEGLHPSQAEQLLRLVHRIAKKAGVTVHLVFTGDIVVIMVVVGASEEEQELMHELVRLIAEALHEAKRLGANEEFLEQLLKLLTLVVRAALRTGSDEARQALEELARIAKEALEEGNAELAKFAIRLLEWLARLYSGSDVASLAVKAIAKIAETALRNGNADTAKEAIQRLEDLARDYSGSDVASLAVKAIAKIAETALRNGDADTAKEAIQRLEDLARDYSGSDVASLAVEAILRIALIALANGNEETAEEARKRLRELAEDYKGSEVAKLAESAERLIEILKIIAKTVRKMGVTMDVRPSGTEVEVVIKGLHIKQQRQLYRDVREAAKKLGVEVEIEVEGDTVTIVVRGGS
Experimental: as §1
as §2, with “Ab initio reconstruction and homogeneous refinement in Cn symmetry were used to generate 3D electron density maps (54, 55).” left out

[1] = biological target: the molecule itself; experiment: SEC titration of the protomer alone at several injection concentrations (Superdex 200, normalised A230); self-association
LHD274 B62 = biological target: T6, LHD274 B62; experiment: SEC binding assay (Superdex 200, normalised A230) of A, B and the mixture AB
T6 construct: also called LHD274 B DHR62 C
T6 single chain, LHD274 chain B fused to DHR62: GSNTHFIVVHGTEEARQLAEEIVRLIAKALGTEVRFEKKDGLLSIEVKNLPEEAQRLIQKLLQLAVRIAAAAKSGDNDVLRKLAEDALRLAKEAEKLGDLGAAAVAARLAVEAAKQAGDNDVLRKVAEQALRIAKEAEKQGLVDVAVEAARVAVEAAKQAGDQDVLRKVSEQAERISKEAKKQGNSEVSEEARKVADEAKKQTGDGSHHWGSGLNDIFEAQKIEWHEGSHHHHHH
Experimental: as §1

274B53 = biological target: T7, 274B53; experiment: as above
T7 construct: also called LHD274B DHR53 stop
T7 chain: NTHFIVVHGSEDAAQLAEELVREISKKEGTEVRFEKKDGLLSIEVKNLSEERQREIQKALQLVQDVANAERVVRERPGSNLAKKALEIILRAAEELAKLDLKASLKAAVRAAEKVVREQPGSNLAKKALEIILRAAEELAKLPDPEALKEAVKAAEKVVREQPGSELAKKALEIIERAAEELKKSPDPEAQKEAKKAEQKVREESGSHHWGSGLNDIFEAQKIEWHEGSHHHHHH
Experimental: as §1

B1: 101B82 (designed binder)
chain: HHHHHHGSGLNDIFEAQKIEWHEAENLYFQSGSDEEVQEAVERAEELREEAEELIKKARKTGDAELLRKALEALEEAVRAVEEAIKRNPDNDEAVETAVRLARELKKVAEELQERAKKTGDAELLKLALRALEVAVRAVELAIKSNPDNDEAVETAVRLARELAKVAEELIERAKKTGDKELLKLAKRALEVAMRAVSLALKSNPDNEEARRVAAELVLLVIRAAVIEMGVTMEEHRSGNRVKVVIKGLHESQQEQLLEDVLRAAEIAGVRVRIRFKGDTVTIVVEG
- binding result (DFA0): binds

B2: DF206 (designed binder)
chain: NTHFIVVHGTEEARQLAEEIVRLIAEALGTEVRFEKKDGLLSIEVKNLPEEAQRLIQKLLQLAVRIAAAAESGDNDQLRELAEDALRLAEEAEKLGDLGAAAVAARLAVEAAKQAGDNDVLREVAEQALEIAKEAEKQGLVDVAVEAARVAVEAAKQAGDNDVLRKVAEQALRIAKEAEKQGNVEVAVKAARVAVEAAKQAGDNDVLRKVAEQALRIAKEAEKQGNVEVAALALVVAVNAAQAAGDQDLLRKIAEQAERLAKLAEKQGRRDVALLASIIALVAKMGVPMEVHPSGNEVKVVIKGLHKSQQEQLLKEVLKAANKLGVNVHISFRGDTVTIRVRGGGSHHWGSGSHHHHHH
notes: Bivalent connector
- binding result (DF275A-1): binds

B3: DFB0 (designed binder)
chain: NTHFIVVHGSEDAAQLAEELVREISKKEGTEVRFEKKDGLLSIEVKNLSEERQREIQKALQLVQDVANAERVVRERPGSNLAKKALEIILRAAEELAKLDLKASLKAAVRAAEKVVREQPGSNLAKKALEIILRAAEELAKLPDPEALKEAVKAAEKVVREQPGSNLAKKALEIILRAAEELAKLPDPEALKEAVKAAEKVVREQPGSNLAKKALEIILRAAAALANLPDPESRKEADKAADKVRREQPGSELAVVAAIISAVARMGVKMELHPSGNEVKVVIKGLHIKQQRQLYRDVREAAKKAGVEVEIEVEGDTVTIVVRGGSHHWGSGSHHHHHH
notes: Bivalent connector
- binding result (101B62): binds

B4: 317B (designed binder)
chain: GGSDVEWRFTNVSEEEQEKLARFVLQVAQLAGTQVIFTTRPGELRIRVHNLDELLALAIELYAQGLRLGDKHVQHLAKKAIEAILRGDRKLARFLLEAARAMSRATERPGSNLAKKALEEILRLAEELAKDPDPESLKAAVHCAEFVVRYQPGSNLAKKALEIILRAAEELAKLPDPEALKEAVKAAEKVVREQPGSELAKKALEIIERAAEELKKSPDPEAQKEAKKAEQKVREERPGSGGSGSHHWGSGSHHHHHH
notes: also called LHD317 B; LHD317B
- binding result (DFX): binds
- binding result (TF10): binds
- binding result [1]: binds

B5: LHD274 A64 (designed binder)
single chain, LHD274 chain A fused to DHR64: GSTTNFHLINGSEEARQLIQKAVEAISKKEGTEVHFEKSDGTLEIRVKNLHPRQEDLIKKFIEALLLALVAKGELEQAEKEGDAEVALRAVEKVVRVAELLLRLAKEAGSEEALKAALEIAEQAARLAKRVLELAEKQGDAEVALRAVELVVRVAELLLRIAKESGSEEALERALRVAEEAARLAKRVLELAEKQGDAEVARRAVELVKRVAELLERIARESGSEEAKERAERVREEARELQERVKELREREGDGSHHWGSGLNDIFEAQKIEWHEGSHHHHHH
- binding result (LHD274 B62): binds
- binding result (274B53): binds

B6: 206B62-2 (designed binder)
chain: HHHHHHGSGLNDIFEAQKIEWHEAENLYFQSGSNDEKRKRAEKALQRAQEAEKKGDVEEAVRAAQEAVRAAKESGDNDVLRKVAEQALRIAKEAEKQGNVEVAVKAARVAVEAAKQAGDNDVLRKVAEQALRIAKEAEKQGNVPVAVKALLVALNAAVAAGDQDVLRKISEQAERARKLAEKQGDKLLAFVLALISLVAQMGVPMEIHPSGNEVKVVIKGLHKSQQEQLLKLVLKLANKLGVNVHISFRGDTVTIRVRGGS
- binding result (DF275A-1): binds
